PMC10823254 (Proceedings of the National Academy of Sciences of the …, 2024)

Target: T1, PilO-C (H. pylori)
T1 chain: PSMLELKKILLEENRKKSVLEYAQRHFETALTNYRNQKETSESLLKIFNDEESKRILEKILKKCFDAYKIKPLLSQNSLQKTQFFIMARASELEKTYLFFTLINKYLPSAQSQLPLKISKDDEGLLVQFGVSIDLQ
Assay: SPR

B1: PilN-C (domain or fragment)
chain: HNAIKSTQDNASSLTIQERLYRHEISRLQVKTDETLKLIKEAKKRLNYNDDIRDVLQGLLNIVPDSITINSIEIDQQSVVVSGKTPSKEAFYFLFQNKLNPMFDYSRAEFFPLSDGWFNFVSTNFSNSLLIKNPESIK
- Kd: 3.1 ± 1 µM
